In patent publication US20250197505A1 (DREN BIO, published 2025):

Key:
[1] = biological target: T1, human CD94 expressed on cells (human primary NK cells in PBMCs; HEK cells expressing human CD94) (human, UniProt Q13241 1-179); assay: HLA-E tetramer blocking assay, flow cytometry on CD3-CD56+ NK cells in healthy donor PBMCs; antibody at one saturating concentration, blocked ligand PE-labelled HLA-E tetramer; percent blocking = 100-((percent HLA-E positive with antibody)/(percent HLA-E positive with isotype)*100)
T1 construct: whole, on cells; also called KLRD1; Natural killer cells antigen CD94
T1 sequence (looked up): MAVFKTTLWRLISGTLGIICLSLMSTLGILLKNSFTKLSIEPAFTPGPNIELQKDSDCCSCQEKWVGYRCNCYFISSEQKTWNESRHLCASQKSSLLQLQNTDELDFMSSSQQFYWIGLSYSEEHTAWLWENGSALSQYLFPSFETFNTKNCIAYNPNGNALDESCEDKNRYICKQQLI
Protocol: Healthy donor PBMCs were incubated with anti-CD94 antibodies. PE labeled HLA-E tetramer was then incubated with the cell and antibody mixture, and detected using flow cytometry. For HP-3B1, 131412, 12K45, DX22, 1M4 and 1E4, 2.5 μl of HLA-E tetramer reagent was used, while 5 μl was used for 18H3 and HP-3D9. Saturating concentrations of each antibody was used in this assay. The percent blocking was calculated as 100−((percent HLA-E positive for anti-CD94 antibody)/(percent HLA-E positive for isotype)*100).
Healthy donor PBMCs were seeded in 96-well plates at a density of 100,000 cells per well, incubated with human Fc block (Biolegend) and cell viability dye (Thermo Fisher) for 30 minutes on ice and protected from light. The cells were washed once with FACS buffer (PBS with 2% IgG low FBS). anti-CD94 antibodies at EC80 concentrations were incubated with cells for 30 minutes on ice and protected from light. After incubation with the anti-CD94 antibodies, the cells were washed and incubated with HLA-E tetramer PE (Creative Biolabs), anti-CD3 pacific blue-labelled, and anti-CD56 FITC-labelled antibodies (Biolegend) for 30 minutes on ice and protected from light. The cells then received a final wash in FACS buffer before quantification on the Cytoflex (Beckman Coulter). All data acquisition and fluorescence compensation were performed using CytoFlex (Beckman Coulter, Atlanta, GA). Data analysis was performed using FlowJo software. NK cells were identified through gating on lymphocytes on the forward and side scatter, followed by doublet and dead cell exclusion, and gated on the CD3−CD56+ population. HLA-E expression was then quantified on the CD3−CD56+NK cell population. Percent blocking was calculated as 100−((percent HLA-E positive for anti-CD94 antibody)/(percent HLA-E positive for isotype)*100).

[2] = biological target: T1, human CD94 expressed on cells (human …); assay: competition assay, flow cytometry on CD3-CD56+ NK cells in healthy donor PBMCs; AF647-labelled 18H3 titrated in the presence of Mouse IgG1 control (no competitor)
Protocol: FIGS. 5A-5B show the results of competition assays performed for 18H3 anti-CD94 antibody evaluation. For all competition assays, 18H3 was incubated with PBMCs at a concentration of […]. […] Commercially available anti-CD94 antibodies were titrated and incubated with PBMCs concurrently with 18H3. […] To test competition between 18H3 and 1M4/1E4, 1M4 and 1E4 were incubated with cells at concentrations of 8.5 µg/ml and […], respectively. 18H3 was fluorescently tagged with AF647 and incubated with cells concurrently with […].
Healthy donor PBMCs were seeded in 96-well plates at a density of 100,000 cells per well, incubated with human Fc block (Biolegend) and cell viability dye (Thermo Fisher) for 30 minutes on ice and protected from light. The cells were washed once with FACS buffer (PBS with 2% IgG low FBS). Unconjugated anti-CD94 antibodies at EC80 concentrations, CD3 FITC and CD56 PE antibodies, and APC-labeled anti-CD94 antibodies were incubated with cells for 30 minutes on ice and protected from light. The cells then received a final wash in FACS buffer before quantification on the Cytoflex (Beckman Coulter). All data acquisition and fluorescence compensation were performed using CytoFlex (Beckman Coulter, Atlanta, GA). Data analysis was performed using FlowJo software. […] Anti-CD94 APC was then quantified on the CD3−CD56+NK cell population. […]

B1: anti-CD94 antibody clone 18H3 (antibody, V domains shown)
VH: EVQLVQSGAEVKKPGESLKISCKGSGYRFTSYWIGWVRQMPGKGLEWMGIIYPGDSDTRYSPSFQGQVIISADKSITTAFLQWSSLKASDTAMYYCARPFDYGGSPGYFDYWGQGTLVTVSS
VL: DIQMTQSPSTLSASVGDRVTITCRASQSIRSWLAWYQQKPGKAPKLLIYKASSLESGVPSRFSGSGSGTEFTLTISSLQPDDFATYYCQQYNTFWTFGQGTKVEIK
notes: also called 18H3-AF647
HLA-E Blocking [1]: 0% | EC50 (read off the curve) [2]: ~1 nM
